This series in a line: amyloid nucleation score (Sup35N fusion, yeast selection) (log enrichment); library NNK1; higher = more nucleation; inactive = no reads after selection. In outline: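 The nucleation score, computed with DiMSum, is the log enrichment of output over input reads, centred on the mode score of non-aggregating sequences. Sequences with under 100 input reads were dropped. Reads were generated by Illumina sequencing of plasmid inserts from psi-negative yeast with Sup35N fused to peptides of 20 random codons, induced with 100 μM copper sulfate for 24 hours and grown 7 days at 30°C on medium lacking adenine and uracil.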

Experimental findings from the supplement of paper PMC12042874 are described below.

± gives the uncertainty stated by the source.

With GFSWSNITKCGWACGSDGMK, the amyloid nucleation score came to 0.676 ± 0.45.
To DSLSNLCDFCSSK belongs 0.668 ± 0.5; to ANTNAFKHLNYILMVLVLQG, “inactive”; to VIERFMAKRPGC, 0.698 ± 0.68.
To VYLVGASWPADVDEFGGRKD belongs -0.402 ± 0.54; to RFVNKGGT, -0.325 ± 0.69.
To YCSQPSAWSLRLNRSCPHNM belongs -0.593 ± 1.1.
MAWDLT gave an amyloid nucleation score of 1.52 ± 0.22.
The same measure for SESYEFVVHLHMESLRKLN: -0.245 ± 0.71; for LPGYVGQ: 0.472 ± 0.78; for SPSKLGSE: 0.903 ± 0.56.
To RSCGMTVGACSYVACVSYCT belongs 6.02 ± 0.066.
HLNNSLLELVNCRKYSIKGC had an amyloid nucleation score of 0.088 ± 0.35.
On to FVIDV, for which the amyloid nucleation score is -0.568 ± 0.98.
The same measure for RTFHYAVNINRWLNKECGLH: -0.702 ± 1.7; for NGTRYMEAIMEKSLC: 1.47 ± 0.4.
PGTGPVCQNGDVAF displayed an amyloid nucleation score of -0.948 ± 1.7.
YWLGLNMCVFSHPGCGLREI registered an amyloid nucleation score of 6.64 ± 0.047.
The same measure for IFYFYFCRYLSIQMVILGVQ: 0.983 ± 0.33; for LNKVWFSWSRDKVRYTGMLV: -0.857 ± 0.48; for VFSCLLHYIFKAMLGYSVCL: -0.155 ± 0.3.
As for RFNSYEVVIRVWRDSMISEG, the amyloid nucleation score turned out to be 1.09 ± 0.78.
To YLISYRLTPSYASVNDCFPD belongs 0.203 ± 0.46; to TLLYICSRNTKFNGLMWLGL, 0.935 ± 0.21.
The same measure for SQINWILYTSNFTLW: -1.02 ± 1.7.
To SAFVDWSAGSSNDFFFF belongs -0.577 ± 0.94; to LGVKFVQDGTINKGHLKR, -0.543 ± 0.63.
In turn, SYRGWADADNLVLYPQNASV showed an amyloid nucleation score of 0.021 ± 0.97.
Take FCRDVSVYLDYLDGPRSGWS: the amyloid nucleation score is -0.245 ± 0.35.
To ISNVWNCGKFRSLGLFVTGQ belongs 0.247 ± 0.31.
The same measure for QGKLFFLVNLYSKPQNSHYG: 4.13 ± 0.069.
To WTVSWHIVGYSRVDVMKRTK belongs “inactive”.
Substance CLYICIMGRIDAISSHSQII registered an amyloid nucleation score of 0.453 ± 0.43.
FCFGGNVGRYLMVRPCVFGY had an amyloid nucleation score of 0.035 ± 0.71.
With NNKKNY, the amyloid nucleation score was -0.505 ± 0.27.
The same measure for SLWTLWGFSFGDT: -0.458 ± 0.47; for DRLGDHLKDILVKFYNV: 0.294 ± 0.99.
The same measure for SYSIASVFWSSMSNGLGR: 0.886 ± 0.2; for IGSRIKA: 1.04 ± 0.19; for LTISRSYRPKWFSVSTGLDS: 0.437 ± 1.4.
To NLKRPNELWINIETFIRSLH belongs 1.32 ± 0.38; to WYDAK, 0.286 ± 0.36.
In turn, SSAELFREPFQVNRCNCEGW came in with an amyloid nucleation score of 0.774 ± 0.47.
For AVIVVV, the amyloid nucleation score turned out to be 0.175 ± 0.39.
To NPSGFRSTEWYV belongs -0.421 ± 0.56.
The same measure for SEMLSLKIGQGTVTPFNFWM: -0.09 ± 1.2; for DTRNPRITALRY: 0.431 ± 0.39.
To DGVRTDLVILFWQCDHYEL belongs -0.516 ± 0.43.
TVLFV registered an amyloid nucleation score of 0.298 ± 0.38.
SNDCRMLWMIWKTGSACLDP: the amyloid nucleation score was determined as 0.271 ± 0.43.
The same measure for SQTNSIISCLERFAGGLVLI: 0.349 ± 0.55; for DDTIFLMRAIMVFNLICWCV: “inactive”.
With CLQFSVEARRLLKLNVGALE, the amyloid nucleation score was 2.29 ± 0.13.
The substance WGSYS registered an amyloid nucleation score of 0.118 ± 1.1.
The same measure for QIIHGCSAGLQLT: 0.809 ± 0.47; for ATRSSSFRMHDKNLCLTVDM: 0.855 ± 0.48.
In the case of LLRNGFHSVLI, the amyloid nucleation score was determined as 0.488 ± 0.25.
As for VDMNWVITGTNWEFRLRVDA, the amyloid nucleation score worked out at 0.24 ± 0.43.
The substance FLWSYWPCSVGTEMTSQVRI displayed an amyloid nucleation score of -0.459 ± 0.82.
The same measure for RQGSDGVSSRKLWFFVRIAI: -0.383 ± 1.7; for TSRRAEYRWSYQEKSGSSRS: 1.26 ± 0.45.
The same measure for RGFCTGNDVF: “inactive”.
The same measure for SALGFFRAYQSIKRTLFRRR: -0.064 ± 0.56.
The substance GCAQRKVAPWNRGLRQ gave an amyloid nucleation score of -0.501 ± 0.62.
Substance IGIFIGRLCCYIFGEVMR gave an amyloid nucleation score of 1.16 ± 0.16.
As to FSKQTPVASEG, the amyloid nucleation score entry was “inactive”.
The same measure for EVYVRRRVSIQKEGVLHAQK: 0.907 ± 0.97.
The same measure for CAGWFRTFGAYKDAMARLAR: “inactive”.
The same measure for CVWFFLFPVQAITLFDLESV: -0.033 ± 0.74.
TMVFCRI showed an amyloid nucleation score of 0.23 ± 0.79.
The same measure for VPGLRI: 0.584 ± 0.54.
The same measure for RQDAVNNNTCNSISFNP: 0.048 ± 0.52.
The same measure for NDNLVDNQT: 0.23 ± 0.75; for DAVSGGVFNCVLFNKVLSLM: -0.597 ± 0.32; for LVCRYFRNRWMPSTRWGVHS: 0.711 ± 0.85.
In turn, SQGAMFVTFMFLEYVMPQPP returned an amyloid nucleation score of 3.95 ± 0.089.
As for RQTGVYCKFNRSRDSILLSH, the amyloid nucleation score was -0.782 ± 0.86.
To WCGLARREKCRMPNGHRVHI belongs -0.497 ± 0.48.
To DDLTVMVGPYMGGS belongs -0.82 ± 1.1; to TDRTQTYSTFASRGSDVTVT, 0.185 ± 0.35.
The same measure for VRHMWWVFPIFEISVRKCPV: -0.116 ± 1; for GKYKI: -0.476 ± 0.63.
In turn, CVTANRHDENITSLLWRIVQ yielded an amyloid nucleation score of -2.36 ± 2.4.
To CRLCLRKHLSVISSSAEYLP belongs “inactive”; to TAWGHV, 0.411 ± 0.73; to HLMMTLFFVPVLMCITFTDG, -0.032 ± 0.3.
To EQASVIKDVYFPHILRLRMA belongs -0.432 ± 0.4; to NCASLLGRFSDDLIDHLSVL, 2.02 ± 0.62; to LFDARDSRFSCRYVMRRVWV, 0.195 ± 0.25.
The same measure for MLSII: -1.39 ± 1.7; for ISDCNRMFTSLSWDMSSPLI: 1.75 ± 0.57; for VDSLITRSWVDHHNKYNHGI: 0.635 ± 0.64.
Turning to VVMMWDI, the amyloid nucleation score result is “inactive”.
For the substance RLMTDHINSTVTSMGKGRIT, the amyloid nucleation score was -0.026 ± 0.22.
On to SDFAYCRCNLSVYRGMILTQ, for which the amyloid nucleation score is 0.064 ± 0.25.
The same measure for SWAIRALKFVWIA: -0.323 ± 0.93.
The same measure for LSWVVVVSNKYGQTMTCVVI: -0.326 ± 0.5; for GTLRHDVMRQLTFLCYFINL: 0.047 ± 0.72; for CFVVVCLFMKA: “inactive”.
Consider YADWLEDCETVP, for which the amyloid nucleation score was -0.309 ± 0.45.
Regarding IWCSCAYRGVGMSTGFAIIY, the amyloid nucleation score was 1.13 ± 0.58.
To PNRRCCPMVGFIWLYRVL belongs 0.836 ± 0.85.
Substance KTGPAA yielded an amyloid nucleation score of -0.17 ± 0.73.
The same measure for DCFYLSIGRIFFHP: 2.92 ± 0.21.
As to FWLILFIVFIKYMNILFRTC, the amyloid nucleation score came to 1.08 ± 0.27.
To CRCTVNHVMVRLSRGCRDAH belongs “inactive”.
The same measure for HKTFGCCLDLWHIMPHFIIL: -0.396 ± 0.37.
The same measure for GVDKASYPHSFGEQWLSLSL: 0.844 ± 0.97; for KLNVFDLVNRAKVGHCGSSG: 0.026 ± 0.51.
TTYHCGP yielded an amyloid nucleation score of 0.039 ± 1.5.
The same measure for VAYRVFCD: 0.51 ± 0.36; for LGSAAISLIVLFLG: 2.64 ± 0.27.
The same measure for LLKSKRL: 0.563 ± 0.43; for CGDGPHHVLCLSVVDICVGC: -1.04 ± 1.6.
To HWYVTVCLVSMCQVGKGKDN belongs 3.5 ± 0.087; to SRSSGFAVTYSNTRTKKSKA, -1.77 ± 1.3; to IYWCMM, 7.125 ± 0.057.
As to NLTRHVDVANPAPRLPHLGV, the amyloid nucleation score was -0.146 ± 0.46.
Substance TTKAVRCYRNIMCSTILGRS returned an amyloid nucleation score of -0.015 ± 0.31.
The same measure for SSEIDYVFMAPREV: -0.06 ± 0.63.
QHEDISPPKLPIVNSAIPFV returned an amyloid nucleation score of 0.335 ± 0.54.
The same measure for ESVTWSWE: 0.505 ± 0.39.
The same measure for MSNFLTELGNNSTHREDGER: 0.501 ± 0.78; for EWLLARMTISKRMMW: 0.587 ± 0.29; for TMRLNQCPLNSFPTLFLYER: -0.602 ± 0.31.
The same measure for IVGLQAVENIRNSCICLFMK: 4.5 ± 0.065; for LRCYEDLFVGLAHGRMRYTG: -0.561 ± 1.7.
MTAPHFLYLKRPHRPTRPDL showed an amyloid nucleation score of 0.898 ± 0.58.
Consider ANLDYWRSSTFTEHMVGLNR, for which the amyloid nucleation score is -0.469 ± 1.2.
To FLKKGERTIF belongs -0.446 ± 1; to VALLKWFRIWVSFANCLWGR, 0.128 ± 0.99; to MHISCNTDSSYTFGRNALK, 0.341 ± 0.74.
Turning to DGAYWELSY, the amyloid nucleation score was -0.506 ± 0.27.
To FFGFCSSVES belongs 0.662 ± 0.51.
The same measure for NHFGAYVVYGFIEHKKTGMW: 1.82 ± 0.19.
The same measure for HLWRVRLV: 0.01 ± 0.61; for IGSSHRNSLVCVVEDENIQI: 1.01 ± 0.5.
In the case of RVCVFIN, the amyloid nucleation score entry was “inactive”.
The same measure for RCWGRAYMYRPCCISV: -1.06 ± 0.8; for MFFLYCLARRVGKLMECRV: 1.28 ± 0.46; for PYWTVYGELL: 0.116 ± 0.97.
